Test results reported in the supplement of paper PMC10899765.

These sequences were tested on MCF10A (assay: 5+ nucleoli phenotype percent effect (relative to siNT 0% and siKIF11 100%); higher = more cells with five or more nucleoli). Settings: 20 nM; 72 h.
Experimental: (§1)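 After 72 h, cells were fixed and stained with Hoechst and anti-fibrillarin, and nucleoli per nucleus were counted with CellProfiler. Values are plate-adjusted percent effect for the one-nucleolus and 5+ nucleoli phenotypes, normalised to siNT (0%) and to the positive controls siNOL11 or siKIF11 (100%), as the mean of biological triplicates. Percent viability is the nuclei count relative to siNT.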
In the case of “UCUCACUGUAGCCUCGAACCCC [hsa-miR-1304-3p]”, the “5+ nucleoli phenotype percent effect” value is reported as 22.9%.
For “CUGCAGACUCGACCUCCCAGGC [hsa-miR-1273h-3p]”, the “5+ nucleoli phenotype percent effect” value was -28.5%.
In the case of CAGGAUGUGGUCAAGUGUUGUU [hsa-miR-1265], the “5+ nucleoli phenotype percent effect” value is reported as 67.6%.
For “UUCUCCAAAAGGGAGCACUUUC [hsa-miR-519e-5p]”, the “5+ nucleoli phenotype percent effect” value was 4.42%.
In the case of CGUGGAUUGUCUGGAUGCAU [hsa-miR-8056], the “5+ nucleoli phenotype percent effect” value is reported as -25.1%.
In the case of “GUGAGUGGGAGCCGGUGGGGCUG [hsa-miR-4758-5p]”, the “5+ nucleoli phenotype percent effect” value is reported as 48.5%.
“UUGCUCUGCUCCCCCGCCCCCAG [hsa-miR-6805-3p]” was tested, and the “5+ nucleoli phenotype percent effect” value was 43.1%.
UCACUCCUCUCCUCCCGUCUU [hsa-miR-483-3p] was tested, and the “5+ nucleoli phenotype percent effect” value was -26.9%.
For CUGAACUAGAGAUUGGGCCCA [hsa-miR-7158-3p], the “5+ nucleoli phenotype percent effect” value was -10.2%.
“AGGAAGCCCUGGAGGGGCUGGAG [hsa-miR-671-5p]” was tested, and the “5+ nucleoli phenotype percent effect” value was -27.7%.
UACUCAGGAGAGUGGCAAUCAC [hsa-miR-510] was tested, and the “5+ nucleoli phenotype percent effect” value was -26.8%.
For CUAGUGCUCUCCGUUACAAGUA [hsa-miR-4473], the “5+ nucleoli phenotype percent effect” value was 18%.
For CAUUAUUACUUUUGGUACGCG [hsa-miR-126-5p], the “5+ nucleoli phenotype percent effect” value was 12.5%.
For UGAUUGGUACGUCUGUGGGUAG [hsa-miR-509-3p], the “5+ nucleoli phenotype percent effect” value was -46.5%.
With UGCUAUGCCAACAUAUUGCCAU [hsa-miR-31-3p] the “5+ nucleoli phenotype percent effect” value was -33.1%.
With UGGGGGAGUGCAGUGAUUGUGG [hsa-miR-5698] the “5+ nucleoli phenotype percent effect” value was 43.2%.
In the case of “UGGUCAGAGGCAGCAGGAAAUGA [hsa-miR-6801-5p]”, the “5+ nucleoli phenotype percent effect” value is reported as 27.3%.
UGAGUGUUGUCUACGAGGGCA [hsa-miR-3659] was tested, and the “5+ nucleoli phenotype percent effect” value was 21.3%.
With AGGGAGGGACGGGGGCUGUGC [hsa-miR-149-3p] the “5+ nucleoli phenotype percent effect” value was -16.6%.
With GCCUAUCACAUAUCUGCCUGU [hsa-miR-3927-5p] the “5+ nucleoli phenotype percent effect” value was 67.2%.
“UGAGAAGGCACAGCUUGCACGUGA [hsa-miR-6770-5p]” was tested, and the “5+ nucleoli phenotype percent effect” value was -3.61%.
UGUGACUGCAUUAUGAAAAUUCU [hsa-miR-3118] was tested, and the “5+ nucleoli phenotype percent effect” value was 5.27%.
In the case of “AGAAUUGUGGCUGGACAUCUGU [hsa-miR-219-2-3p]”, the “5+ nucleoli phenotype percent effect” value is reported as -41.8%.
With AGAGUCUUGUGAUGUCUUGC [hsa-miR-924] the “5+ nucleoli phenotype percent effect” value was -44.9%.
In the case of CCAGACAGAAUUCUAUGCACUUUC [hsa-miR-1324], the “5+ nucleoli phenotype percent effect” value is reported as 49.8%.
With “UGUGUACACACGUGCCAGGCGCU [hsa-miR-3177-5p]” the “5+ nucleoli phenotype percent effect” value was 61.9%.
CCCAUGCCUCCUGCCGCGGUC [hsa-miR-6872-3p] was tested, and the “5+ nucleoli phenotype percent effect” value was -8.71%.
For GAGGGUUGGGUGGAGGCUCUCC [hsa-miR-296-3p], the “5+ nucleoli phenotype percent effect” value was 9.3%.
GCUUGUCGCUGCGGUGUUGCU [hsa-miR-3655] was tested, and the “5+ nucleoli phenotype percent effect” value was -7.75%.
With GGGUGAGGGCAGGUGGUU [hsa-miR-4710] the “5+ nucleoli phenotype percent effect” value was 22.2%.

The sequences below were run on MCF10A (assay: one-nucleolus phenotype percent effect (relative to siNT 0% and siNOL11 100%); higher = more cells with one nucleolus (ribosome biogenesis inhibition)). Settings: 20 nM; 72 h.
Experimental: as §1
GUGAGGGACUGGGAUUUGUGG [hsa-miR-6834-5p] was tested, and the “one-nucleolus phenotype percent effect” value was -28.7%.
In the case of “CUCUAGAGGGAAGCGCUUUCUG [hsa-miR-518e-5p]”, the “one-nucleolus phenotype percent effect” value is reported as -0.877%.
With GCUGACUCCUAGUCCAGGGCUC [hsa-miR-345-5p] the “one-nucleolus phenotype percent effect” value was -8.97%.
With “UGGUCUGUUCAUUCUCUCUUUUUGGCC [hsa-miR-7107-3p]” the “one-nucleolus phenotype percent effect” value was 13.2%.
ACACUUGUUGGGAUGACCUGC [hsa-miR-6500-3p] was tested, and the “one-nucleolus phenotype percent effect” value was 22.5%.
In the case of AAAGCUGGGUUGAGAAGG [hsa-miR-320e], the “one-nucleolus phenotype percent effect” value is reported as 3.44%.
With “UGCUCAGGUUGCACAGCUGGGA [hsa-miR-3934-3p]” the “one-nucleolus phenotype percent effect” value was 9.77%.
With UCUAUACAGACCCUGGCUUUUC [hsa-miR-1284] the “one-nucleolus phenotype percent effect” value was -16.5%.
ACCCUAUCAAUAUUGUCUCUGC [hsa-miR-454-5p] was tested, and the “one-nucleolus phenotype percent effect” value was -29.8%.
With CUGACUGUUGCCGUCCUCCAG [hsa-miR-943] the “one-nucleolus phenotype percent effect” value was -0.183%.
In the case of “CUGGGAGAGGGUUGUUUACUCC [hsa-miR-30c-1-3p]”, the “one-nucleolus phenotype percent effect” value is reported as 23.4%.
For AUAGUGGUUGUGAAUUUACCUU [hsa-miR-4460], the “one-nucleolus phenotype percent effect” value was 11.2%.
For AUGUGAUUGACGGCUGACUCCA [hsa-miR-8070], the “one-nucleolus phenotype percent effect” value was 26.5%.
For “UGAAGCUCUGACAUUCCUGCAG [hsa-miR-6806-3p]”, the “one-nucleolus phenotype percent effect” value was 15.3%.
With UGUCCUCUGUUCCUCAG [hsa-miR-6852-3p] the “one-nucleolus phenotype percent effect” value was 43.6%.
With UUAGGGCCCUGGCUCCAUCUCC [hsa-miR-1296] the “one-nucleolus phenotype percent effect” value was 8%.
In the case of UGACAACUAUGGAUGAGCUCU [hsa-miR-549a], the “one-nucleolus phenotype percent effect” value is reported as -18.5%.
With UGUCACUCGGCUCGGCCCACUAC [hsa-miR-668] the “one-nucleolus phenotype percent effect” value was -1.34%.
In the case of “GGGCCUCUCUUGUCAUCCUGCAG [hsa-miR-6744-3p]”, the “one-nucleolus phenotype percent effect” value is reported as -21.1%.
In the case of “CCAAUAUUACUGUGCUGCUUUA [hsa-miR-16-2-3p]”, the “one-nucleolus phenotype percent effect” value is reported as -17.8%.
ACAGCCCAGCAGUUAUCACGGG [hsa-miR-5685] was tested, and the “one-nucleolus phenotype percent effect” value was -1.32%.
UCUGAGGCCUGCCUCUCCCCA [hsa-miR-4649-3p] was tested, and the “one-nucleolus phenotype percent effect” value was 23.9%.
GAAGUGUGCCGUGGUGUGUCU [hsa-miR-595] was tested, and the “one-nucleolus phenotype percent effect” value was 12.4%.
For CUAUACAACCUACUGCCUUCCC [hsa-let-7b-3p], the “one-nucleolus phenotype percent effect” value was 10.1%.
In the case of “UGGGGUAAGGAUAGGAGGGUCA [hsa-miR-6881-5p]”, the “one-nucleolus phenotype percent effect” value is reported as 4.74%.
For AUCGGGAAUGUCGUGUCCGCCC [hsa-miR-425-3p], the “one-nucleolus phenotype percent effect” value was -1.79%.
“ACUGGGAUGUCACUGAAUAUGGU [hsa-miR-6506-5p]” was tested, and the “one-nucleolus phenotype percent effect” value was 25%.
In the case of GAUGAGCUCAUUGUAAUAUGAG [hsa-miR-556-5p], the “one-nucleolus phenotype percent effect” value is reported as -2.48%.
For UCACAAGGUAUUGACUGGCGUA [hsa-miR-4457], the “one-nucleolus phenotype percent effect” value was 1.5%.
“UCUCACUGUAGCCUCGAACCCC [hsa-miR-1304-3p]” was tested, and the “one-nucleolus phenotype percent effect” value was -27.3%.
“CUGCAGACUCGACCUCCCAGGC [hsa-miR-1273h-3p]” was tested, and the “one-nucleolus phenotype percent effect” value was 13.6%.
CAGGAUGUGGUCAAGUGUUGUU [hsa-miR-1265] was tested, and the “one-nucleolus phenotype percent effect” value was -25.1%.
For “UUCUCCAAAAGGGAGCACUUUC [hsa-miR-519e-5p]”, the “one-nucleolus phenotype percent effect” value was -3.64%.
For CGUGGAUUGUCUGGAUGCAU [hsa-miR-8056], the “one-nucleolus phenotype percent effect” value was 12.9%.
For “GUGAGUGGGAGCCGGUGGGGCUG [hsa-miR-4758-5p]”, the “one-nucleolus phenotype percent effect” value was -17.7%.
For “UUGCUCUGCUCCCCCGCCCCCAG [hsa-miR-6805-3p]”, the “one-nucleolus phenotype percent effect” value was -15.8%.
UCACUCCUCUCCUCCCGUCUU [hsa-miR-483-3p] was tested, and the “one-nucleolus phenotype percent effect” value was 16.3%.
CUGAACUAGAGAUUGGGCCCA [hsa-miR-7158-3p] was tested, and the “one-nucleolus phenotype percent effect” value was 16%.
“AGGAAGCCCUGGAGGGGCUGGAG [hsa-miR-671-5p]” was tested, and the “one-nucleolus phenotype percent effect” value was 58.7%.
For UACUCAGGAGAGUGGCAAUCAC [hsa-miR-510], the “one-nucleolus phenotype percent effect” value was 41.9%.
CUAGUGCUCUCCGUUACAAGUA [hsa-miR-4473] was tested, and the “one-nucleolus phenotype percent effect” value was -11.7%.
In the case of CAUUAUUACUUUUGGUACGCG [hsa-miR-126-5p], the “one-nucleolus phenotype percent effect” value is reported as -14.9%.
UGAUUGGUACGUCUGUGGGUAG [hsa-miR-509-3p] was tested, and the “one-nucleolus phenotype percent effect” value was 34%.
With UGCUAUGCCAACAUAUUGCCAU [hsa-miR-31-3p] the “one-nucleolus phenotype percent effect” value was 27.9%.
With UGGGGGAGUGCAGUGAUUGUGG [hsa-miR-5698] the “one-nucleolus phenotype percent effect” value was -25.1%.
“UGGUCAGAGGCAGCAGGAAAUGA [hsa-miR-6801-5p]” was tested, and the “one-nucleolus phenotype percent effect” value was -5.6%.
For UGAGUGUUGUCUACGAGGGCA [hsa-miR-3659], the “one-nucleolus phenotype percent effect” value was -0.683%.
AGGGAGGGACGGGGGCUGUGC [hsa-miR-149-3p] was tested, and the “one-nucleolus phenotype percent effect” value was 42.9%.
With GCCUAUCACAUAUCUGCCUGU [hsa-miR-3927-5p] the “one-nucleolus phenotype percent effect” value was -27.5%.
In the case of “UGAGAAGGCACAGCUUGCACGUGA [hsa-miR-6770-5p]”, the “one-nucleolus phenotype percent effect” value is reported as 34.3%.
With UGUGACUGCAUUAUGAAAAUUCU [hsa-miR-3118] the “one-nucleolus phenotype percent effect” value was 20.9%.
“AGAAUUGUGGCUGGACAUCUGU [hsa-miR-219-2-3p]” was tested, and the “one-nucleolus phenotype percent effect” value was 35.6%.
For AGAGUCUUGUGAUGUCUUGC [hsa-miR-924], the “one-nucleolus phenotype percent effect” value was 24.7%.
CCAGACAGAAUUCUAUGCACUUUC [hsa-miR-1324] was tested, and the “one-nucleolus phenotype percent effect” value was -11%.
With “UGUGUACACACGUGCCAGGCGCU [hsa-miR-3177-5p]” the “one-nucleolus phenotype percent effect” value was -22.2%.
For CCCAUGCCUCCUGCCGCGGUC [hsa-miR-6872-3p], the “one-nucleolus phenotype percent effect” value was 17.4%.
In the case of GAGGGUUGGGUGGAGGCUCUCC [hsa-miR-296-3p], the “one-nucleolus phenotype percent effect” value is reported as 20.8%.
With GCUUGUCGCUGCGGUGUUGCU [hsa-miR-3655] the “one-nucleolus phenotype percent effect” value was 29.1%.
GGGUGAGGGCAGGUGGUU [hsa-miR-4710] was tested, and the “one-nucleolus phenotype percent effect” value was 17.1%.
